Measurements as given in publication PMC7946963 (2021).
Where a chain is given by its changes, count along the chain named. Values belong to the binder of their own block, whether it stands above or below them. Square brackets hold non-standard residues; d marks the D form. Ends that are not written are not given here. pS = N[C@@H](COP(=O)(O)O)C(=O)O

Columns and labels:
Assay in all cases: FP
[1] = target: T1, FIP200 Claw domain (residues 1490–1594) (human, UniProt Q8TDY2 1490-1594)
T1 chain: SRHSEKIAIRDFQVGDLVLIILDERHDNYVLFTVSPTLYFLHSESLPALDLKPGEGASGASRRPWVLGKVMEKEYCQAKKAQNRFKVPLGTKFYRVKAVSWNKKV

LC3B = LC3B (UniProt Q9GZQ8 1-120)
1 = 1 (UniProt Q9H0R8 1-117)
Chain of 1 (Q9H0R8 whole entry): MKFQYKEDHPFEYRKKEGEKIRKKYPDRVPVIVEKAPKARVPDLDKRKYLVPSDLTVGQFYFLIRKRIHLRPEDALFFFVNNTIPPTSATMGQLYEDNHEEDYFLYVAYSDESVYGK

LC3A = LC3A (UniProt Q9H492 1-121)
GABARAPL2 = GABARAPL2 (UniProt P60520 1-117)
Chain of GABARAPL2 (P60520 whole entry): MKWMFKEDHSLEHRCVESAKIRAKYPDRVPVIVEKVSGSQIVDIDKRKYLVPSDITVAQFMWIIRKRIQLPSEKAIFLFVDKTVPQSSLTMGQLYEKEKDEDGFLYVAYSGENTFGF

LC3C = target: T2, LC3C (UniProt Q9BXW4 1-126)
T2 chain: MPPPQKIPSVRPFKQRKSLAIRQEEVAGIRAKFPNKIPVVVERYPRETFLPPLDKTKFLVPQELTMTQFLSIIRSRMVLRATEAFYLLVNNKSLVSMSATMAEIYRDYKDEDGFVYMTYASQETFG

FIP200 Claw Y1564S = target: T3, FIP200 Claw Y1564S (human)
T3 chain: T1 chain with Y75S

FIP200 Claw K1569A = target: T4, FIP200 Claw K1569A (human)
T4 chain: T1 chain with K80A

FIP200 Claw R1573E = target: T5, FIP200 Claw R1573E (human)
T5 chain: T1 chain with R84E

FIP200 Claw F1574Q = target: T6, FIP200 Claw F1574Q (human)
T6 chain: T1 chain with F85Q

- Kd [1]: 12.3 µM
- Kd (LC3B): 40.7 µM
- Kd 1: 37.3 µM
- Kd (LC3A): 37.3 µM
- Kd (GABARAPL2): 123 µM
- Kd (LC3C): 39.8 µM
B1: CCPG1 FIR2 synthetic peptide (residues 99–113) (peptide)
peptide: TASDDSDIVTLEPPK
modifications: also: N-terminal FITC only in fluorescence polarisation assay form

- Kd (FIP200 Claw Y1564S): 79.5 µM
- Kd (FIP200 Claw K1569A): 105 µM
- Kd (FIP200 Claw R1573E): 138 µM
- Kd (FIP200 Claw F1574Q): 120 µM
B2: CCPG1 FIR2 (residues 99–113), recombinant (domain or fragment)
chain: TASDDSDIVTLEPPK

- Kd [1]: 0.72 µM
- Kd (LC3B): 20.6 µM
- Kd 1: 15.3 µM
- Kd (LC3A): 15.3 µM
- Kd (GABARAPL2): 34.5 µM
- Kd (LC3C): 11 µM
B3: phospho-CCPG1 FIR2 synthetic peptide (p-CCPG1 FIR2) (peptide)
peptide: TASDD[pS]DIVTLEPPK
modifications: also: N-terminal FITC in fluorescence polarisation assay only
